We go through twelve substances from patent US8168592B2 (Amgen Inc., priority 2005, dated 2012).

Square brackets hold non-standard residues; d marks the D form. PEG = not defined here

For the assay, the target named is T1, CGRP1 receptor (Homo sapiens, UniProt O60894+Q16602).
T1 construct: SK-N-MC cells express CRLR and RAMP1, which form CGRP1 receptor; endogenous in cells; host or cells: SK-N-MC human neuroblastoma cells
As to the kind of experiment: in vitro CGRP1 receptor mediated cAMP assay in SK-N-MC cells. It counts as cell-based. Particulars: for loss in antagonist activity on PEGylation relative to the unconjugated parent peptide: cAMP assay. A digest of the protocol: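 Intracellular cAMP served as the Gs-coupled CGRP1 readout in endogenously expressing SK-N-MC cells. After a 15-minute room-temperature step in plasma-free medium, cell lysates (30 minutes, 37° C) went into a competitive ELISA with a cAMP-AP conjugate and anti-cAMP antibody for 1 hour, then a 30-minute substrate enhancer step before reading.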

T1 sequence (Q16602 23-461): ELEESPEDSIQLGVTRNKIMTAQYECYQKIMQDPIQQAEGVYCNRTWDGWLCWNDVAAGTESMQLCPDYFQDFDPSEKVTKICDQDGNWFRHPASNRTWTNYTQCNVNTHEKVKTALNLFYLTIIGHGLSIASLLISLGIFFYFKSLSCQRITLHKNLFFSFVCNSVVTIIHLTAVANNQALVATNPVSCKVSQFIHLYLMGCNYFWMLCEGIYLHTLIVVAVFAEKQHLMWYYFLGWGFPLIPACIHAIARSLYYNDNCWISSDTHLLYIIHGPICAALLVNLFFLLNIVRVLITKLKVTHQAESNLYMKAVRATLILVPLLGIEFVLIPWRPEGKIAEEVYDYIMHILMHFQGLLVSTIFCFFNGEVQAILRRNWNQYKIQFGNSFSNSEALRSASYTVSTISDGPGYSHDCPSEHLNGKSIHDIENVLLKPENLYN
T1 sequence (O60894 27-148): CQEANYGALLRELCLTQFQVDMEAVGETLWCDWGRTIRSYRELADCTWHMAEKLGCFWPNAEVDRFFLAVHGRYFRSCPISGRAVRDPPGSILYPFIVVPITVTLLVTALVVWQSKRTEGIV

Regarding “SEQ ID NO:26 (WVTHXLAGLLSXSGGVVRKNFVPTDVGPFAF; CGRP peptide; MOD_RES (1)..(1): …ON; MISC_FEATURE (5)..(5): xaa=homoarginine; MISC_FEATURE (12)..(12): xaa=homoarginine; MISC_FEATURE (19)..(19): PEGylated; MOD_RES (31)..(31): AMIDATION)”, the “antagonist activity in cAMP assay, in words” value (shortened to “antagonist activity … in words”) is recorded as “antagonist activity returned to the levels of the two peptides with single substitutions”.

On to “SEQ ID NO:27 (WVTHXLAGLLSRSGGVVRKNFVPTDVGPFAF; CGRP peptide; MOD_RES (1)..(1): …ON; MISC_FEATURE (5)..(5): xaa=citrulline; MOD_RES (31)..(31): AMIDATION)”, for which the “antagonist activity … in words” value is “well tolerated”.

Take “SEQ ID NO:28 (WVTHXLAGLLSRSGGVVRKNFVPTDVGPFAF; CGRP peptide; MOD_RES (1)..(1): …ON; MISC_FEATURE (5)..(5): xaa=citrulline; MISC_FEATURE (19)..(19): PEGylated; MOD_RES (31)..(31): AMIDATION)”: the “antagonist activity … in words” value is “relatively minor loss of in vitro antagonist activity”.

As for “SEQ ID NO:29 (WVTHRLAGLLSXSGGVVRKNFVPTDVGPFAF; CGRP peptide; MOD_RES (1)..(1): …ON; MISC_FEATURE (12)..(12): xaa=citrulline; MOD_RES (31)..(31): AMIDATION)”, the “antagonist activity … in words” value was “well tolerated”.

“SEQ ID NO:30 (WVTHRLAGLLSXSGGVVRKNFVPTDVGPFAF; CGRP peptide; MOD_RES (1)..(1): …ON; MISC_FEATURE (12)..(12): xaa=citrulline; MISC_FEATURE (19)..(19): PEGylated; MOD_RES (31)..(31): AMIDATION)”: the “antagonist activity … in words” value is listed as “relatively minor loss of in vitro antagonist activity”.

For “SEQ ID NO:33 (Ac-WVTHRLAGLLSASGGVVRCNFVPTDVGPFAF-NH2)”, the “antagonist activity … in words” value is listed as “not well tolerated”.

Take “SEQ ID NO:35 (Ac-WVTHRLAGLLSQSGGVVRCNFVPTDVGPFAF-NH2)”: the “antagonist activity … in words” value is recorded as “well tolerated”.

As to “SEQ ID NO:36 (Ac-WVTHRLAGLLSQSGGVVRC(PEG)NFVPTDVGPFAF-NH2; reading uncertain)”, the “loss in antagonist activity on PEGylation relative to the unconjugated parent peptide” value is listed as “greater than 12 fold”.

As to “SEQ ID NO:38 (Ac-WVTHRLAGLLSQSGGVVRK(PEG)NFVPTDVGPFAF-NH2; reading uncertain)”, for the setting “amine linkage”, the “more potent than the thioether-linked PEGylated analog SEQ ID NO:36” value is reported as “more than 42 fold”.

As for “SEQ ID NO:40 (Ac-WVTHQLAGLLSQSGGVVRK(PEG)NFVPTDVGPFAF-NH2; reading uncertain)”, the “antagonist activity … in words” value is recorded as “reasonably good in vitro potency”.

“SEQ ID NO:41 (Ac-WVTHRLAGLLS[dR]SGGVVRCNFVPTDVGPFAF-NH2; SMILES CC(=O)N[C@@H](Cc1c[nH]c2ccccc12)C(=O)N[C@H](C(=O)N[C@H](C(=O)N[C@@H](Cc1c[nH]cn1)C(=O)N[C@@H](CCCNC(=N)N)C(=O)N[C@@H](CC(C)C)C(=O)N[C@@H](C)C(=O)NCC(=O)N[C@@H](CC(C)C)C(=O)N[C@@H](CC(C)C)C(=O)N[C@@H](CO)C(=O)N[C@H](CCCNC(=N)N)C(=O)N[C@@H](CO)C(=O)NCC(=O)NCC(=O)N[C@H](C(=O)N[C@H](C(=O)N[C@@H](CCCNC(=N)N)C(=O)N[C@@H](CS)C(=O)N[C@@H](CC(N)=O)C(=O)N[C@@H](Cc1ccccc1)C(=O)N[C@H](C(=O)N1CCC[C@H]1C(=O)N[C@H](C(=O)N[C@@H](CC(=O)O)C(=O)N[C@H](C(=O)NCC(=O)N1CCC[C@H]1C(=O)N[C@@H](Cc1ccccc1)C(=O)N[C@@H](C)C(=O)N[C@@H](Cc1ccccc1)C(N)=O)C(C)C)[C@@H](C)O)C(C)C)C(C)C)C(C)C)[C@@H](C)O)C(C)C)”: the “antagonist activity … in words” value is listed as “well tolerated”.

On to “SEQ ID NO:42 (Ac-WVTHRLAGLLS[dR]SGGVVRCNFVPTDVGPFAF-NH2; not fully specified (residue 19); printed as Ac-WVTHRLAGLLSrSGGVVRCNFVPTDVGPFAF-NH2)”, for which the “loss in antagonist activity on PEGylation relative to the unconjugated parent peptide” value is given as “greater than 32 fold”.
